Stoichiometry of the complex after Ni-chelate chromatography (percent) data for one substance are collected here from publication PMC3526297.

The test has as its target GST-Rev3 (S. cerevisiae) (UniProt P14284). The test can be described thus: affinity co-purification of the polymerase from yeast.
Chain of UniProt P14284 (P14284 whole entry): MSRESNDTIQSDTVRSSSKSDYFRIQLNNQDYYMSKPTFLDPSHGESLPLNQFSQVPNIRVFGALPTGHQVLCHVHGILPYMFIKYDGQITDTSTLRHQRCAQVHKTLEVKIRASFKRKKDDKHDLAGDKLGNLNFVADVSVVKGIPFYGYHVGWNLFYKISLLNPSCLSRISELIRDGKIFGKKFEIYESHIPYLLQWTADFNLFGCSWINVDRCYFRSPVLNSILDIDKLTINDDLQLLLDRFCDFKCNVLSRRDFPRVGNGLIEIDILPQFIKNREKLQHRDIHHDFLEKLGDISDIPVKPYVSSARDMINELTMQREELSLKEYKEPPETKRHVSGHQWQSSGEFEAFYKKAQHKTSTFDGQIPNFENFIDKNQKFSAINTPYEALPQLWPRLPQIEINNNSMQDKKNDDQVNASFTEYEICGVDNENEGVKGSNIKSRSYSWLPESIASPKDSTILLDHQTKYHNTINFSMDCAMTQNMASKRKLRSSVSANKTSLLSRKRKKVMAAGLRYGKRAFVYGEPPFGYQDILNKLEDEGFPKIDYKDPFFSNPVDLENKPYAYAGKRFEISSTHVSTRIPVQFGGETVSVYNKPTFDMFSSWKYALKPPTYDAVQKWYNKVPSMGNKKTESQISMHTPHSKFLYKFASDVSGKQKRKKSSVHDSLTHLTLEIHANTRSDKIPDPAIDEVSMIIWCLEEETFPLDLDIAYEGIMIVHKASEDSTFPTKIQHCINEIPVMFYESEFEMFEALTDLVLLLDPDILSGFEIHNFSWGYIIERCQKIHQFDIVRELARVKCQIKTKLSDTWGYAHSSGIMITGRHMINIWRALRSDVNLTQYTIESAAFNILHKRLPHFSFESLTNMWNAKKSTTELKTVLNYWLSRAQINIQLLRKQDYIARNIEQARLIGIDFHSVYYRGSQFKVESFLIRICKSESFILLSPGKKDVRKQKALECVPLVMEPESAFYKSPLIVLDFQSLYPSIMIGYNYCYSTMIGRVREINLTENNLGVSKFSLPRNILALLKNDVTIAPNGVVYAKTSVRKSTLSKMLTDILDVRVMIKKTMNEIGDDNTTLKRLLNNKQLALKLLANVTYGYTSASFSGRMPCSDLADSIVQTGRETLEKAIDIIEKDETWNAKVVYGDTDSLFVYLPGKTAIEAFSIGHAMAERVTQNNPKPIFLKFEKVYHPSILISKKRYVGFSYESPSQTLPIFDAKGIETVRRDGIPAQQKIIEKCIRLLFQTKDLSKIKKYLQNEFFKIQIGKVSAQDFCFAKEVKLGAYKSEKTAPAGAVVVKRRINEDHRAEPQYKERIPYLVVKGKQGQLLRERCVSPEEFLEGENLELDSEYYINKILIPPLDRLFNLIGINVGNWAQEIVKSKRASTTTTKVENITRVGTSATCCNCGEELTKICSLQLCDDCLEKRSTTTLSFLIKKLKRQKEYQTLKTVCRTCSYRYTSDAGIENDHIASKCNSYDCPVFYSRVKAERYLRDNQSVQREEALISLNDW

Substance “Pol32 with an N-terminal His7 tag (from UniProt P47110 1-350) (natural protein)” gave a stoichiometry of the complex after Ni-chelate chromatography (percent) of 100%.
